# Source: article PMC13142116, “Development and structure-guided characterization of a novel ACE2-binding macrocyclic peptide” (Journal of Structural Biology: X, 2026)
# Positions of bridges follow the written chain, without caps; N, C: chain ends. Non-standard residues stand in square brackets, D forms with d. Residues, ends and D or L forms follow the SMILES beside them. *: point of attachment. DOTA = O=C(O)CN1CCN(CC(=O)O)CCN(CC(=O)*)CCN(CC(=O)O)CC1
# Legend:
# [1] = in vitro; type: in vitro ADME; settings: mouse, plasma
# Procedure: Additionally, the integrity of [^67Ga]Ga-DOTA-WJL-63 (20 MBq/nmol) in mouse and human blood plasma (Rockland Immunochemicals, Inc. PA, USA and Blood donation SRK Aargau-Solothurn, Switzerland) was determined using thin layer chromatography (TLC). Reversed phase C-18 plates (TLC Silica gel 60 RP-18; Merck) were used as the stationary phase and a mixture of citrate buffer (pH 5.5; 0.1 M) and acetonitrile (7:3; v/v) as the mobile phase. Under these conditions, uncoordinated gallium-67 migrated with the front while the radiopeptide and potential larger fragments migrated to the center of the plate. […] The quantification of the signals was carried out using the OptiQuant software (version 5.0, Bright Instrument Co Ltd., PerkinElmer). The obtained chromatograms were analyzed by determination of the peak area of the radiolabeled peptide, the released gallium-67 as well as degradation products of unknown structure. The quantity of the intact product was expressed as the percentage of the sum of integrated peak areas of the entire chromatogram and set in relation to the value determined at the respective timepoints of the radiopeptide diluted in saline which was set as 100% to correct for TLC artefacts. The results were then expressed as average ± SD from n = 3 independent experiments.
# [2] = type: physicochemical
# Procedure: The distribution coefficient (logD value) of [^67Ga]Ga-DOTA-WJL-63 was determined using a shake-flask method as previously reported for DX600 radiopeptides ([Beyer et al., 2023]). The distribution coefficients were indicated as the average of n = 3 independent measurements ± standard deviation (SD), each performed with five replicates.
compound,measurement,setting,value
"CC[C@H](C)[C@@H]1NC(=O)[C@H](CCC(N)=O)NC(=O)[C@H]([C@@H](C)O)NC(=O)[C@H](CO)NC(=O)[C@@H](Cc2ccc(O)cc2)NC(=O)CSC[C@@H](C(=O)NCC(=O)N[C@@H](CO)C(=O)NCC(=O)N[C@@H](CO)C(=O)NCC(=O)N[C@@H](CO)C(=O)N[C@@H](CCCCNC(=O)CN2CCN(CC(=O)O)CCN(CC(=O)O)CCN(CC(=O)O)CC2)C(N)=O)NC(=O)CNC(=O)[C@H](CCCNC(=N)N)NC(=O)[C@H](CO)NC(=O)[C@H](CC(=O)O)NC(=O)[C@H](CCCNC(=N)N)NC(=O)[C@H]([C@@H](C)O)NC(=O)[C@H](Cc2ccccc2)NC(=O)CNC(=O)[C@H](CCCNC(=N)N)NC(=O)[C@H](CO)NC1=O [[^67Ga]Ga-DOTA-WJL-63, metal not drawn] ({CH2CO}-[dY]STQISRGFTRDSRGCGSGSGSK(DOTA)-NH2; thioether N-16)","remaining at 1 h, 10 MBq/200 µL",[1],91%
same,"remaining at 3 h, 10 MBq/200 µL",[1],69%
same,logD value,[2],− 4.4 ± 0.1
